Columns and labels:
[1] = Activity assay with biotinylated O^6-benzylguanine (BG-Bt), Western blotting; type: biochemical; details: statement in words
Procedure: Activity towards O^6-benzylguanine substrates is measured as described by Juillerat et al., Chem Biol 10:313-317, 2003.
Activity assay: Purified mutated GST-AGT is incubated in vitro with a biotinylated O^6-benzylguanine (BG-Bt, substance 3a of Juillerat et al., Chem Biol 10:313-317, 2003). In a total reaction volume of 80 […]I, 0.2 µM GST-AGT are incubated with 1 µM substrate in 50 mM HEPES pH 7.2 and 1 mM DTT at room temperature. At several points of time an aliquot is quenched with 1 mM O^6-benzylguanine (Sigma) in SDS-Laemmli buffer and subjected to Western blotting analysis (neutravidin-peroxidase conjugate (PIERCE), Renaissance reagent plus (NEN)). The intensity of the corresponding bands is quantified by a Kodak Image Station 440.

[2] = Expression yield of soluble GST-AGT fusion protein; design: species or system E. coli; details: comparator not stated
Procedure: Expression yield is measured in E. coli or in any other of the standard production cells for genetically modified proteins, e.g. yeast, or preferably insect cells, CHO cells or HeLa cells. For quantifying expression yield, AGT fusion proteins may be chosen such that the fusion partner allows easy purification and quantification. For example, expression yield in E. coli is determined by measuring and comparing the yield of soluble and insoluble GST-wild type AGT fusion protein and GST-mutant AGT fusion protein from parallel E. coli expression cultures. Samples of the soluble fractions and insoluble fractions (i.e. the inclusion bodies) after cell lysis are subjected to SDS-PAGE, and the band staining intensities of the corresponding AGT fusion proteins are compared. Soluble protein is quantified after purification of the fusion protein from cell extracts by affinity chromatography (e.g. for GST-AGT fusion proteins by glutathione sepharose) by subjecting the purified fractions to a protein concentration assay (Bradford, Anal Biochem 72:248-54, 1976). The expression yield of similar proteins in the soluble fraction (difference in point mutations) can be used as a measure for protein stability in the unpurified as well as the purified state (Ohage et al., J Mol Biol 291:1119-1128, 1999; Wirtz et al., Protein Sci 8: 2245-50, 1999). Therefore, this is taken as a measure of folding stability and aggregation tendency.
Protein expression from this vector is carried out in E. coli strain BL21. An exponentially growing culture is induced with 0.5 mM IPTG, and the expression is carried out for 3.5 h at 24° C.
Purification: The harvested cells are resuspended in a buffer containing 50 mM phosphate, 0.5 M NaCl, 1 mM DTT, supplemented with 1 mM PMSF and 2 μg/ml aprotinin, and disrupted by lysozyme and sonification. The cell debris are separated by centrifugation at 40000×g. The extract is applied to pre-equilibrated glutathione sepharose (Amersham) which is then washed with 20 bed volumes (50 mM phosphate, 0.5 M NaCl, 1 mM DTT). The mutated GST-AGT fusion protein is eluted with 10 mM reduced glutathione in 50 mM Tris·HCl pH 7.9. The purified protein is dialyzed against 50 mM HEPES pH 7.2; 1 mM DTT; 30% glycerol and then stored at −80° C.
Determination of protein yield: Purity and relative amounts of the GST-AGT fusion proteins are compared by running samples on SDS-PAGE. UV spectra of the pure fractions are recorded using a Perkin Elmer Lambda 10. For protein samples containing no significant amount of DNA, the extinction at 280 nm as a measure of protein content is compared to that of wild type hAGT or PGEG-hAGT that were purified under the same conditions.

[3] = Periplasmic expression / stability under oxidizing conditions; design: species or system E. coli
Procedure: The activities towards AGT substrates are measured after purification without addition of reducing agents such as dithiothreitol or beta-mercaptoethanol. Alternatively, the activities of mutant AGT and wild type human are compared after their export into cellular compartments with oxidising redox potential (e.g. the periplasm of E. coli due to their fusion to appropriate signal sequences. Activity towards AGT substrates under reducing and oxidising conditions is compared by performing the reactions in the presence or absence of reducing agents such as dithiothreitol or beta-mercaptoethanol.
The mutant AGT gene of Example 1 is amplified and cloned as described in Example 1 with the oligonucleotides SEQ ID NO:3, SEQ ID NO:10 and SEQ ID NO:4, SEQ ID NO:9 causing the further mutation Cys62Ala in the gene upon their incorporation by PCR. Protein expression, purification and determination of yield is carried out as described in Example 1. The mutant gene is PCR amplified with the primers SEQ ID NO:11, SEQ ID NO:12 that contain SfiI restriction sites to subclone the gene in fusion to the g3 protein of filamentous phage in the vector pAK100 (Krebber et al., J Immunol Methods 201:35-55, 1997). […] The supernatant is directly subjected to quantification of protein yield via SDS-PAGE and activity assays as described in Example 1.
Stability under oxidizing conditions: The mutant gene is PCR amplified with the primers SEQ ID NO:11 and SEQ ID NO:28 to subclone the gene into pAK100, as described in Example 2. […] To compare the reactivity of […] (Juillerat et al., Chem Biol 10:313-317, 2003) and the mutant, samples are incubated with 1 µM BG-Bt for 50 min, quenched with SDS-Laemmli buffer and analyzed by western blotting using neutravidin peroxidase conjugate (Pierce) or a monoclonal mouse anti-FLAG IgG antibody (M2, Sigma) and a secondary anti-mouse-IgG::HRP conjugate, and Renaissance reagent plus (NEN). […] The anti-FLAG IgG antibody is used to estimate the total amount of soluble AGT protein, whereas neutravidin quantifies the reactive portion of it. […]

[4] = Competition of N^9-substituted and N^9-unsubstituted O^6-benzylguanine substrates; type: biochemical; details: comparator not stated
Procedure: Such N^9-substituted O^6-alkylguanine substrates are the natural substrates of the wild type AGT. The ability of wild type AGT or mutant AGT to react with N^9-modified O^6-alkylguanine substrates is measured as the rate of its reaction with such substrates, e.g. with the low molecular weight N^9-cyclopentyl-O^6-benzylguanine in presence of biotinylated N^9-unsubstituted O^6-alkylguanine substrates in competition experiments. Subsequently, samples are subjected to Western blotting and detection with streptavidin derivates to obtain kinetic constants for these substrates. Alternatively, the reactivity towards such substrates is measured as the inhibition of the reaction of AGT with BG-Cy3. The reaction of AGT with BG-Cy3 is followed by an increase of Cy3 fluorescence intensity upon binding to AGT, after preincubation or in direct competition with the N^9-modified O^6-alkylguanine substrate.
Selected AGT mutants are subcloned into pGEX2T, expressed, purified and characterized as described in Example 1. Discrimination between N^9 substituted and N^9 unsubstituted O^6-benzylguanine substrates is evaluated by competition experiments for purified mutated GST-AGT in vitro with N^9-substituted and N′-unsubstituted O^6-benzylguanine. Aliquots of 0.2 μM GST-AGT are incubated with varying concentrations of N^9 substituted substrate (0, 0.5, up to 100 µM) and 0.5 µM biotinylated O^6-benzylguanine (BG-Bt, substance 3a of Juillerat et al., Chem Biol 10:313-317, 2003) in 50 mM HEPES pH 7.3 and 1 mM DTT at room temperature. After 45 min reactions are quenched by the addition of SDS-Laemmli buffer and heat denaturation. Samples are subjected to SDS-PAGE and Western blotting analysis (neutravidin-peroxidase conjugate (PIERCE), Renaissance reagent plus (NEN)). The intensity of the corresponding bands is quantified by a Kodak Image Station 440.

B1: Cys62Ala, Gln115Ser, Gln116His, Lys125Ala, Ala127Thr, Arg128Ala, Cys150Asn, Ser151Ile, Ser152Asn, Asn157Gly, Ser159Glu, truncated after Gly182: particularly preferred hAGT mutant with the listed … (protein, UniProt P16455 1-207, looked up, variant C62A Q115S Q116H K125A A127T R128A C150N S151I S152N N157G S159E del183-207)
Methylated-DNA--protein-cystei …: MDKDCEMKRTTLDSPLGKLELSGCEQGLHEIKLLGKGTSAADAVEVPAPAAVLGGPEPLMQATAWLNAYFHQPEAIEEFPVPALHHPVFQQESFTRQVLWKLLKVVKFGEVISYSHLAALAGNPAATAAVGGAMRGNPVPILIPCHRVVNINGAVGGYEGGLAVKEWLLAHEGHRLGKPGLG
- activity towards O^6-benzylguanine substrates [1]: increased reactivity
- expression yield in E. coli [2]: increased expression yield
- sensitivity to oxidation [3]: reduced sensitivity to oxidation
- reduced reactivity towards O^6-alkyl-N^9-deoxyribosylguanine or N^9-cyclopentyl-O^6-benzylguanine [4]: retain reactivity
